Columns and labels:
[1] = molecular target: T1, IL-1 receptor on EL.4 cells (Mus musculus, UniProt P13504); assay: Equilibrium receptor binding of [35S]-labeled IL-1β peptides to EL.4 cells, Scatchard plot analysis; design: species or system murine; conditions: for receptor affinity compared with wild-type IL-1β (in words): equilibrium binding analyses and competitive binding studies
T1 construct: incubated with EL.4 cells; endogenous in cells; host or cells: EL.4 (murine thymoma)
T1 sequence (P13504 20-576): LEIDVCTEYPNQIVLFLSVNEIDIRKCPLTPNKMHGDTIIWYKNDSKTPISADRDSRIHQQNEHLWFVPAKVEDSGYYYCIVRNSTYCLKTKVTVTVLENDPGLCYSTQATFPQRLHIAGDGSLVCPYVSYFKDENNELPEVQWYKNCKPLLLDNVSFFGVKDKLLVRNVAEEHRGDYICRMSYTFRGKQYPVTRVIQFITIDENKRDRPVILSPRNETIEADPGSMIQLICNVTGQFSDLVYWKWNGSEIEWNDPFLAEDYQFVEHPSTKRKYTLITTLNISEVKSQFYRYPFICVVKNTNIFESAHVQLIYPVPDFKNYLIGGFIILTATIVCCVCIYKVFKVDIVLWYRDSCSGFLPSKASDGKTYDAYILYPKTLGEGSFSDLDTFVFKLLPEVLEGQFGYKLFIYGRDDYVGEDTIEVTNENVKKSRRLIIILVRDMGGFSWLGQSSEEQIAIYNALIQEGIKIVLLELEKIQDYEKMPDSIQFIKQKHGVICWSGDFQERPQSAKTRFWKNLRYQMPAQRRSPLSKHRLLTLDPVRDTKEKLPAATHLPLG
Protocol: The conversion of IL-1 molecules by mutation of specific residues gives muteins having utility as IL-1 biological activity inhibitors. Specifically disclosed is the preparation and testing of human IL-1β.
The receptor binding characteristics of the Arg127 →Gly127mutant protein were determined by Scatchard analysis and by sodium dodecyl sulfate (SDS) polyacrylamide gel analysis of specifically bound proteins (Dower et al., 1986; Jobling et al., 1988; Mosley et al., J. Biol. Chem. 1987). For the polyacrylamide gel analysis, IL-1β proteins were labeled with [^35 S]methionine during in vitro translation before cell surface receptor binding assays using EL4 6.1 C10 murine thymoma cells (Jobling et al., 1988; Mosley et al., Proc. Natl. Acad. Sci. USA, 1987; MacDonald, H. R., R. K. Lees, C. Bron [1985] J. Immunol. 135:3944) (FIG. 3). […] Equilibrium binding experiments and Scatchard plot data (Table 1) confirmed the equivalence of binding constants.

[2] = molecular target: T2, EL4 cell receptors (IL-1 receptor) (Mus musculus, UniProt P13504); assay: Competitive receptor binding against [35S]-labeled mature IL-1β on EL.4 thymoma cells; design: species or system murine; conditions: 37° C., concentrations up to a five-fold molar excess, FIG. 4
T2 construct: incubating EL.4 thymoma cells; endogenous in cells; host or cells: EL.4 thymoma cells
T2 sequence (P13504 20-576): T1 sequence (P13504 20-576)
Protocol: FIG. 4. Competitive receptor binding. A constant amount of radioactive mature IL-1β protein was added to 1.9×10^7 EL.4 cells in binding medium. The results are presented as a percentage of radioactive IL-1β which bound specifically in the absence of competitor. The 100% value represents approximately 30,000 cpm.
As a further analysis of the receptor binding properties, nonradioactive proteins were used to complete with [^35 S]-labeled wild-type mature IL-1β for binding to EL4 cell receptors (FIG. 4). Competitive receptor binding was performed by incubating EL.4 thymoma cells at 37° C. in the presence of a constant level of [^35 S]-labeled mature IL-1β protein and increasing concentrations of non-radioactiveIL-1β competitor translation products. […] The amount of IL-1β protein synthesized by in vitro translation was determined by specific radioactivity using a radioactive IL-1β protein standard which was quantitated by radioimmune assay. […] The cells were solubilized in lysis buffer (50 mM sodium phosphate, pH 7; 10 mM ethylenediaminetetraacetic acid (EDTA); 0.1% TRITON™ X-100; 0.1% sarkosyl; 10 mM β-mercaptoethanol) before quantitation of bound radioactivity by liquid scintillation counting. […]

[3] = system: helper T-cells (D10.G4.1); assay: Biological activity: [3H]thymidine incorporation by helper T-cells (D10.G4.1) with diluted translation mixtures; format: cell-based; conditions: FIG. 2
Protocol: FIG. 2. Biological activities of IL-1β proteins. Reticulocyte translation mixtures were incubated and assayed in the thymocyte co-stimulation assay as described previously (Jobling et al., 1988). The results are presented as [^3 H]thymidine incorporation (counts/minute)at various final dilutions of the translation mixtures.
The IL-1β proteins were synthesized by in vitro translation of SP6 or T7 messenger RNAs. In vitro protein synthesis was performed as described previously (Jobling et al., 1988; Jobling, S. A., and L. Gehrke [1987] Nature 325:622-625). The translational efficiency of all construct mRNAs was increased by replacing the untranslated leader sequence of the IL-1β mRNA with that of alfalfa mosaic virus RNA (Jobling et al., 1988; Jobling et al., 1987). All IL-1β protein translation products contain the amino-terminal methionine residue added during initiation of protein synthesis. The biological activity of the translation products was tested by quantitating [^3 H]thymidine incorporation by helper T-cells (D10.G4.1) (Kaye, Y., S. Porcelli, J. Tite, B. Jones, C. A. Janeway [1983] J. Exp. Med. 158:836-856) incubated in the presence of diluted translation reaction mixtures (FIG. 2).

[4] = molecular target: T3, cell surface receptor of EL4 6.1 C10 murine thymoma cells (Mus musculus, UniProt P13504); assay: SDS polyacrylamide gel analysis of specifically bound [35S]-labeled IL-1β proteins; format: binding; conditions: FIG. 3
T3 construct: endogenous in cells; host or cells: EL4 6.1 C10 murine thymoma cells
T3 sequence (P13504 20-576): T1 sequence (P13504 20-576)
Protocol: FIG. 3. Analysis of receptor binding. [^35 S]-labeled IL-1β proteins were incubated at 4° C. with murine EL.4 cells in the absence (-) or presence (+) or nonradioactive competitor recombinant IL-1β protein. Following incubation, the cells were sedimented through silicone oil as described previously (Jobling et al., 1988). The IL-1β proteins are identified at the top of the figure by numbers corresponding to amino acid positions. IL1(1-269) is proIL-1β, while IL1(117-269) corresponds to the mature IL-1β protein. The "native" and "Gly127 " notations at the bottom of the figure refer to the wild-type mature protein (Arg127) and the Arg127 →Gly127 mutein, respectively.
The receptor binding characteristics of the Arg127 →Gly127mutant protein were determined by Scatchard analysis and by sodium dodecyl sulfate (SDS) polyacrylamide gel analysis of specifically bound proteins (Dower et al., 1986; Jobling et al., 1988; Mosley et al., J. Biol. Chem. 1987). For the polyacrylamide gel analysis, IL-1β proteins were labeled with [^35 S]methionine during in vitro translation before cell surface receptor binding assays using EL4 6.1 C10 murine thymoma cells (Jobling et al., 1988; Mosley et al., Proc. Natl. Acad. Sci. USA, 1987; MacDonald, H. R., R. K. Lees, C. Bron [1985] J. Immunol. 135:3944) (FIG. 3). […]

[5] = molecular target: T1, IL-1 receptor on EL.4 cells; conditions: Jobling et al., 1988; cited from earlier work
[6] = literature (Huang et al. 1987; Jobling et al. 1988); cited from earlier work

Row | Substance | Relative binding (receptor binding affinity in relation to mature wild-type IL-1β = 100%) ([1]; EL.4 cells, 4° C.) [%] | receptor affinity compared with wild-type IL-1β (in words) ([1]; listed as Arg127 →Gly127 mutant form of IL-1β) | receptor affinity compared with wild-type IL-1β (in words) ([1]; listed as Arg127 →Gly127 mutant protein) | competition with [35S]-labeled wild-type mature IL-1β for binding (in words) [2] | biological activity (half maximal), fold less than wild-type mature IL-1β [3] | biological activity relative to that induced by mature IL-1β [3] [%] | half maximal biological activity compared with proIL-1β [3] | receptor binding properties by intensity of bound protein bands, compared with native mature IL-1β [4] | affinity for receptor, fold less than that of mature IL-1β [5] [fold] | biological activity (in words) [6]
1 | Arg127 →Gly127 mutant: human mature IL-1β mutein made by site-directed mutagenesis of the IL-1β cDNA converting Arg127 to Gly127 | 107 | equal affinity | indistinguishable from that of the wild-type IL-1β protein | reproducibly competed more effectively than the wild-type mature IL-1β | at least 100 fold | 1 | greater than that of proIL-1β | similar | – | –
2 | proIL-1β: human IL-1β 31,000 dalton precursor protein, 269 amino acids | – | – | – | competed minimally | – | – | – | – | 30 | relatively low, but distinct biological activity
